In patent US20080299140A1, “Immunogenic Composition and Peptide Sequences for Prevention and Treatment of an Hsv Condition” (priority 2002, published 2008):
pIC50: −log10 of the molar value.

Columns and labels:
[1] = target: HLA-DR(α1*0101,α3*0101) (human); assay: competition assay on purified HLA; tracer LOL (191-210)
[2] = target: DP401=HLA-DP(α1*0101,α1*0401) (human); assay: HLA class II competition binding assay, biotinylated tracer peptide
[3] = target: DRB4=HLA-DR(α1*0101,α4*0101) (human); assay: as above
[4] = target: DRB5=HLA-DR(α1*0101,α5*0101) (human); assay: as above
[5] = target: DR3=HLA-DR(α1*0101,α1*0301) (human); assay: as above
[6] = target: DR15=HLA-DR(α1*0101,α1*1501) (human); assay: as above
[7] = target: DR11=HLA-DR(α1*0101,α1*1101) (human); assay: as above
[8] = target: DR13=HLA-DR(α1*0101,α1*1301) (human); assay: as above
[9] = target: DRB3=HLA-DR(α1*0101,α3*0101) (human); assay: as above
[10] = target: DR7=HLA-DR(α1*0101,α1*0701) (human); assay: as above
[11] = target: DR1=HLA-DR(α1*0101,α1*0101) (human); assay: as above
[12] = target: HLA-DR(α1*0101,α1*0701) (human); assay: competition assay on purified HLA; tracer YKL
[13] = target: HLA-DP(α1*0101,α1*0401) (human); assay: competition assay on purified HLA; tracer bOxy 271-287
[14] = target: HLA-DR(α1*0101,α1*1501) (human); assay: competition assay on purified HLA; tracer A3 (152-166)
[15] = target: HLA-DR(α1*0101,α4*0101) (human); assay: competition assay on purified HLA; tracer E2/E168
[16] = target: HLA-DR(α1*0101,α1*1301) (human); assay: competition assay on purified HLA; tracer B1 (21-36)
[17] = target: HLA-DR(α1*0101,α5*0101) (human); assay: competition assay on purified HLA; tracer HA (307-319)
[18] = target: HLA-DR(α1*0101,α1*1101) (human); assay: as above
[19] = target: HLA-DR(α1*0101,α1*0101) (human); assay: as above
[20] = target: HLA-DR(α1*0101,α1*0301) (human); assay: competition assay on purified HLA; tracer MT (2-16)
[21] = target: DP402=HLA-DR(α1*0101,α1*0402) (human); assay: HLA class II competition binding assay, biotinylated tracer peptide
[22] = target: DR4=HLA-DR(α1*0101,α1*0401) (human); assay: as above
[23] = target: DP (α1*0101, α1*0402) (human); assay: competition assay on purified HLA; tracer bOxy 271-287
[24] = target: HLA-DR(α1*0101,α1*0401) (human); assay: competition assay on purified HLA; tracer HA (307-319)

| Substance | pIC50 [1] | pIC50 [2] | pIC50 [3] | pIC50 [4] | pIC50 [5] | pIC50 [6] | pIC50 [7] | pIC50 [8] | pIC50 [9] | pIC50 [10] | pIC50 [11] | pIC50 [12] | pIC50 [13] | pIC50 [14] | pIC50 [15] | pIC50 [16] | pIC50 [17] | pIC50 [18] | pIC50 [19] | pIC50 [20] | other results |
| --- | --- | --- | --- | --- | --- | --- | --- | --- | --- | --- | --- | --- | --- | --- | --- | --- | --- | --- | --- | --- | --- |
| HSV1 1 (gB809-840) (peptide) | < 4.00 | 5.79 | 7.37 | 8.22 | 6.00 | 8.52 | 7.89 | 6.55 | < 4.00 | 6.53 | 8.22 | 6.53 | 5.79 | 8.52 | 7.37 | 6.55 | 8.22 | 7.89 | 8.22 | 6.00 | – |
| HSV1 2 (gB401-433) (peptide) | < 4.00 | – | – | – | < 4.00 | 7.22 | – | < 4.00 | < 4.00 | 9.00 | > 9.00 | 9.00 | – | 7.22 | – | < 4.00 | – | – | > 9.00 | < 4.00 | – |
| HSV1 3 (gB111-140) (peptide) | – | 7.22 | – | – | – | – | – | – | – | – | – | – | 7.10 | 7.52 | – | 6.30 | – | – | – | – | – |
| HSV1 4 (gB424-445) (peptide) | < 4.00 | – | – | – | < 4.00 | – | – | – | < 4.00 | – | 7.52 | – | – | – | – | – | – | – | 7.52 | < 4.00 | – |
| HSV1 5 (gB173-204) (peptide) | – | – | 4.05 | – | – | – | – | – | – | – | – | – | – | – | 4.05 | – | – | – | – | – | – |
| HSV1 6 (gB243-282) (peptide) | – | – | – | 8.05 | 5.40 | 9.00 | – | – | – | – | 9.00 | – | – | 9.00 | – | – | 8.05 | – | 9.00 | 5.40 | – |
| HSV1 7 (gB631-661) (peptide) | – | – | – | – | < 4.00 | 7.22 | – | < 4.00 | – | – | – | – | – | 7.22 | – | < 4.00 | – | – | – | < 4.00 | – |
| HSV1 8 (gB765-799) (peptide) | 4.26 | 6.97 | 6.63 | 8.70 | 5.32 | 8.52 | 8.40 | 6.50 | 4.26 | 7.70 | 8.70 | 7.70 | 6.97 | 8.52 | 6.63 | 6.50 | 8.70 | 8.40 | 8.70 | 5.32 | – |
| HSV1 9 (gB837-870) (peptide) | 4.24 | 5.10 | 4.80 | 6.25 | 4.94 | 5.61 | – | 6.44 | 4.24 | 6.64 | 6.31 | 6.64 | 5.10 | 5.61 | 4.80 | 6.44 | 6.25 | – | 6.31 | 4.94 | pIC50 [21]: 5.40; pIC50 [22]: 5.40; pIC50 [23]: 5.40; pIC50 [24]: 5.40 |
| HSV1 10 (gB80-106) (peptide) | < 4.00 | – | – | – | – | – | – | – | < 4.00 | – | – | – | – | – | – | – | – | – | – | – | – |
| HSV1 11 (gB453-483) (peptide) | < 4.00 | – | – | – | < 4.00 | – | – | < 4.00 | < 4.00 | 7.52 | – | 7.52 | – | – | – | < 4.00 | – | – | – | < 4.00 | – |
| HSV1 12 (gB568-594) (peptide) | – | – | – | – | < 4.00 | – | – | < 4.00 | – | – | – | – | – | – | – | < 4.00 | – | – | – | < 4.00 | – |
| HSV1 13 (gB590-612) (peptide) | – | < 4.00 | – | – | – | – | – | – | – | – | – | – | < 4.00 | – | – | – | – | – | – | – | pIC50 [21]: < 4.00; pIC50 [23]: < 4.00 |
| HSV1 14 (gB607-634) (peptide) | < 4.00 | – | – | – | – | – | – | – | – | – | – | – | – | – | – | – | – | – | – | < 4.00 | – |
| HSV1 30 (gD0-28) (peptide) | 6.27 | 4.75 | < 4.00 | 8.15 | 7.10 | 4.96 | 6.19 | < 4.00 | 6.27 | 6.43 | – | 6.43 | 4.75 | 4.96 | < 4.00 | < 4.00 | 8.15 | 6.19 | – | – | pIC50 [21]: 5.42; pIC50 [23]: 5.42 |
| HSV1 31 (gD22-52) (peptide) | 5.22 | 4.21 | 6.40 | – | 5.60 | – | – | < 4.00 | 5.16 | – | 8.52 | – | 4.21 | – | 6.40 | < 4.00 | – | – | 8.52 | 5.60 | pIC50 [21]: 4.31; pIC50 [22]: 7.20; pIC50 [23]: 4.33; pIC50 [24]: 7.20 |
| HSV1 32 (gD77-104) (peptide) | < 4.00 | 5.84 | – | 9.00 | 5.63 | – | 6.52 | – | < 4.00 | 8.40 | – | 8.40 | 5.84 | – | – | – | 9.00 | 6.52 | – | 5.63 | pIC50 [21]: 6.42; pIC50 [23]: 6.42 |
| HSV1 34 (gD146-179) (peptide) | 5.69 | 6.94 | 6.13 | 7.07 | 4.99 | 7.46 | 6.76 | < 4.00 | 5.69 | 6.50 | 7.40 | 6.50 | 6.94 | 7.46 | 6.13 | < 4.00 | 7.07 | 6.76 | 7.40 | 4.99 | pIC50 [22]: 6.20; pIC50 [24]: 6.20 |
| HSV1 36 (gD49-82) (peptide) | 5.30 | 6.21 | – | 7.18 | 5.90 | 7.74 | 6.92 | < 4.00 | 5.30 | 6.76 | 8.52 | 6.76 | 6.21 | 7.74 | – | < 4.00 | 7.18 | 6.92 | 8.52 | 5.90 | pIC50 [21]: 7.01; pIC50 [22]: 7.03; pIC50 [23]: 7.01; pIC50 [24]: 7.03 |
| HSV1 38 (gD176-206) (peptide) | 4.60 | 7.04 | 5.74 | 7.04 | 5.87 | – | 8.30 | 6.70 | 4.60 | 7.68 | 7.27 | 7.68 | 7.04 | – | 5.74 | 6.70 | 7.04 | 8.30 | 7.27 | 5.87 | pIC50 [22]: 6.02; pIC50 [24]: 6.02 |
| HSV1 40 (gD228-257) (peptide) | < 4.00 | 5.87 | 5.93 | – | 5.62 | 8.70 | 7.41 | 5.80 | < 4.00 | 7.70 | 5.93 | 7.70 | 5.87 | 8.70 | 5.93 | 5.80 | – | 7.41 | 5.93 | 5.62 | pIC50 [21]: 5.14; pIC50 [22]: 5.00; pIC50 [23]: 5.14; pIC50 [24]: 5.00 |
| HSV1 41 (gD96-123) (peptide) | < 4.00 | 6.57 | 5.78 | – | – | 6.78 | 6.22 | 5.32 | < 4.00 | – | 8.52 | – | 6.59 | 6.78 | 5.78 | 5.32 | – | 6.22 | 8.52 | – | – |
